Laboratory results published in paper PMC4175358, “Conformational Analysis of the Streptococcus pneumoniae Hyaluronate Lyase and Characterization of Its Hyaluronan-specific Carbohydrate-binding Module*^([image sbox.jpg])” (The Journal of Biological Chemistry, 2014).

B1: Streptococcus pneumoniae hyaluronate lyase, construct with the CBM, middle (linker) and PL8 domains (residues Lys53-Lys1006) (enzyme)
chain: KNLVENGDFGQTEDGSSPWTGSKAQGWSAWVDQKNSADASTRVIEAKDGAITISSHEKLRAALHRMVPIEAKKKYKLRFKIKTDNKIGIAKVRIIEESGKDKRLWNSATTSGTKDWQTIEADYSPTLDVDKIKLELFYETGTGTVSFKDIELVEVADQLSEDSQTDKQLEEKIDLPIGKKHVFSLADYTYKVENPDVASVKNGILEPLKEGTTNVIVSKDGKEVKKIPLKILASVKDAYTDRLDDWNGIIAGNQYYDSKNEQMAKLNQELEGKVADSLSSISSQADRTYLWEKFSNYKTSANLTATYRKLEEMAKQVTNPSSRYYQDETVVRTVRDSMEWMHKHVYNSEKSIVGNWWDYEIGTPRAINNTLSLMKEYFSDEEIKKYTDVIEKFVPDPEHFRKTTDNPFKALGGNLVDMGRVKVIAGLLRKDDQEISSTIRSIEQVFKLVDQGEGFYQDGSYIDHTNVAYTGAYGNVLIDGLSQLLPVIQKTKNPIDKDKMQTMYHWIDKSFAPLLVNGELMDMSRGRSISRANSEGHVAAVEVLRGIHRIADMSEGETKQCLQSLVKTIVQSDSYYDVFKNLKTYKDISLMQSLLSDAGVASVPRPSYLSAFNKMDKTAMYNAEKGFGFGLSLFSSRTLNYEHMNKENKRGWYTSDGMFYLYNGDLSHYSDGYWPTVNPYKMPGTTETDAKRADSDTGKVLPSAFVGTSKLDDANATATMDFTNWNQTLTAHKSWFMLKDKIAFLGSNIQNTSTDTAATTIDQRKLESGNPYKVYVNDKEASLTEQEKDYPETQSVFLESFDSKKNIGYFFFKKSSISMSKALQKGAWKDINEGQSDKEVENEFLTISQAHKQNRDSYGYMLIPNVDRATFNQMIKELESSLIENNETLQSVYDAKQGVWGIVKYDDSVSTISNQFQVLKRGVYTIRKEGDEYKIAYYNPETQESAPDQEVFKK
notes: Hyaluronate lyase (Hyl) of Streptococcus pneumoniae, a 1066-amino acid protein; residues Lys53-Lys1006, amplified from genomic DNA; lacks the N-terminal secretion signal peptide and the C-terminal cell-wall anchoring motif; the results section prints 53-1007; The His6 tag is joined by a thrombin cleavage site; Theoretical mass printed as 110.6 kDa; In solution a monomer/dimer mixture; also called …
B2: PL8 catalytic domain of Streptococcus pneumoniae hyaluronate lyase (residues Lys288-Gln1009) (domain or fragment)
chain: KDAYTDRLDDWNGIIAGNQYYDSKNEQMAKLNQELEGKVADSLSSISSQADRTYLWEKFSNYKTSANLTATYRKLEEMAKQVTNPSSRYYQDETVVRTVRDSMEWMHKHVYNSEKSIVGNWWDYEIGTPRAINNTLSLMKEYFSDEEIKKYTDVIEKFVPDPEHFRKTTDNPFKALGGNLVDMGRVKVIAGLLRKDDQEISSTIRSIEQVFKLVDQGEGFYQDGSYIDHTNVAYTGAYGNVLIDGLSQLLPVIQKTKNPIDKDKMQTMYHWIDKSFAPLLVNGELMDMSRGRSISRANSEGHVAAVEVLRGIHRIADMSEGETKQCLQSLVKTIVQSDSYYDVFKNLKTYKDISLMQSLLSDAGVASVPRPSYLSAFNKMDKTAMYNAEKGFGFGLSLFSSRTLNYEHMNKENKRGWYTSDGMFYLYNGDLSHYSDGYWPTVNPYKMPGTTETDAKRADSDTGKVLPSAFVGTSKLDDANATATMDFTNWNQTLTAHKSWFMLKDKIAFLGSNIQNTSTDTAATTIDQRKLESGNPYKVYVNDKEASLTEQEKDYPETQSVFLESFDSKKNIGYFFFKKSSISMSKALQKGAWKDINEGQSDKEVENEFLTISQAHKQNRDSYGYMLIPNVDRATFNQMIKELESSLIENNETLQSVYDAKQGVWGIVKYDDSVSTISNQFQVLKRGVYTIRKEGDEYKIAYYNPETQESAPDQEVFKKLEQ
notes: Hyaluronate lyase (Hyl) of Streptococcus pneumoniae, PL8 catalytic domain, residues Lys288-Gln1009; The His6 tag is joined by a thrombin cleavage site; Expected mass printed as 82 kDa; also called PL8 domain; isolated PL8 domain; source: recombinant, pET28, autoinduction culture

Legend:
SpCBM70 = molecular target: T1, SpCBM70 (Streptococcus pneumoniae, UniProt Q54873); test: isothermal titration calorimetry; format: binding; conditions: 25 °C, 25 mM Tris-HCl pH 7.5, 50 mM NaCl; too weak to quantify
T1 construct: gene SP_0314; N-terminal CBM70 module, Lys53-Ser212, N-terminal His6 tag with thrombin site (pET28), recombinant in E. coli; ITC construct; 4D0Q is the C-terminally His6-tagged Asn54-Ser212 form, unliganded
Description: isothermal titration calorimetry on SpCBM70

[1] = molecular target: the molecule itself; test: small angle X-ray scattering; 50 mM Tris-HCl pH 8.0, 500 mM NaCl, 288 K, Hyl 1.0-10.8 mg/ml; monomer/dimer mixture modelled with SASREF7MX (P2 symmetry, 30 runs each at 1.0-2.7 mg/ml) and OLIGOMER; Kd = [monomer]^2/[dimer], dimer to monomers
[2] = molecular target: the molecule itself; test: dynamic light scattering; 25 °C, triplicate, 15 acquisitions of 5 s, after size exclusion chromatography and 0.22 µm filter; Hyl 1.0-10.8 mg/ml, PL8 1.4-10.9 mg/ml; associated fraction from expected radii of a globular monomer and dimer; Kd = [monomer]^2/[dimer], dimer to monomers

Molecule | Ka (SpCBM70) | Kd [1] [µM] | stoichiometry N [1] | Kd [2] [µM] | stoichiometry N [2]
Hyaluronan 4-mer | > 5 × 10^3 | – | – | – | –
B1 | – | ~43 | 2 | ~37 | –
B2 | – | – | – | ~180 | 2
